US20220185876A1 (ATARGA, published 2022)
Positions count from the first letter of the chain named.

T1: human FGF23 (human, UniProt Q9GZV9 25-251)
T1 sequence: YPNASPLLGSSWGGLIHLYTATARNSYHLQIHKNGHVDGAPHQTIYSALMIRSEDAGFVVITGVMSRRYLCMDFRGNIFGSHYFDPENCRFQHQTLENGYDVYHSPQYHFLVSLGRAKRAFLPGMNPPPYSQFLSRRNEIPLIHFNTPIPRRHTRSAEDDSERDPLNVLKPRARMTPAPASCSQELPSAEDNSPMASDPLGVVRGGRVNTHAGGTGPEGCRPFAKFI

B1: Exc23.1 (antibody, V domains shown)
VH: EVQLVQSGAEVRKPGASVKVSCKASGYTFTNHYMHWVRQAPGQGLEWMGIINPISGSTSNAQKLQGRVTFTRDTSANTAYMELSGLIPEDTAIYYCARDIVDAFDFWGQGTLVTVSS
VL: DIQMTQSPSSLSASVGDRVTITCKASQGISSALVWYQQKPGKAPKLLIYDASSLETGVPSRFSGSGSGTDFTFTISSLQPEDIATYYCQQFNDYFSFGPGTKLEIK
notes: Monoclonal anti-FGF23 antibody
B2: Exc23.3 (antibody, V domains shown)
VH: B1 VH
VL: B1 VL with E55Q, S96T
notes: as for B1
B3: ExA11 (antibody, V domains shown)
VH: QVQLVQSGAELKKPGASVKVSCKASGYTFTNHYMHWVRQAPGQGLEWMGIINPISGSTTYAQKFQGRVTMTRDTSSSTAYMDLSRLTSDDTAVYYCARDIVDAFDFWGQGTTVTVSS
VL: AIQLTQSPSSLSASVGDRVTITCRASQGISSALVWYQQKPGQAPRLLIYDASSLESGIPARFSGSGSGTDFTLTISSLEPEDFAVYYCQQFNDYFTFGQGTKLEIK
notes: as for B1
B4: ExA35 (antibody, V domains shown)
VH: QVQLLESGAVLARPGTSVKISCKASGYTFTNHYMHWVKQRPGQGLEWIGIINPITGSSSNAQKFQGRVTITRDTSTSTVFMELSSLRSEDTAVYYCARDIVDAFDFWGQGTLVTVSS
VL: B3 VL
notes: as for B1
B5: ExC50 (antibody, V domains shown)
VH: B4 VH with T28S, I100L
VL: B3 VL with A1D, E55Q
notes: as for B1
B6: ExC17 (antibody, V domains shown)
VH: B1 VH
VL: B3 VL with A1D, E55Q, Y94L
notes: as for B1
B7: ExA43 (antibody, V domains shown)
VH: B1 VH with D99E
VL: B3 VL
notes: as for B1
B8: ExA28 (antibody, V domains shown)
VH: B1 VH
VL: B1 VL with D1A, K24R, T56S, S96T
notes: as for B1
B9: ExA60 (antibody, V domains shown)
VH: B1 VH with T28S, I54N, F106Y
VL: B1 VL with D1A, K24R, T56S, S96T
notes: as for B1
B10: Exc23 (antibody, V domains shown)
VH: B1 VH
VL: B1 VL with E55Q
notes: as for B1
B11: Exc23.4 (antibody, V domains shown)
VH: B1 VH
VL: B1 VL with K24R, E55Q
notes: as for B1
B12: Exc23.2 (antibody, V domains shown)
VH: B1 VH
VL: B1 VL with E55Q, T56S
notes: as for B1
B13: Exc23.5 (antibody, V domains shown)
VH: B1 VH
VL: B1 VL with D1A, E55Q
notes: as for B1

biological target: T1, human FGF23; assay: cell-based or functional assay

Row | IC50, neutralisation of recombinant human FGF23-stimulated proliferation of NIH-3T3 cells (fluorescence) [µg/mL] | Binder
1 | 1.63 | B1
2 | 1.29 | B2

biological target: T1, human FGF23; assay: ELISA, binding to human FGF23 (A450 against log mAb concentration)

Row | EC50 [µg/mL] | Binder
3 | 0.0267 | B3
4 | 0.0238 | B4
5 | 0.0204 | B5
6 | 0.0181 | B6
7 | 0.0278 | B7
8 | 0.0248 | B8
9 | 0.0233 | B9

biological target: T1, human FGF23; assay: cell-based or functional assay; remark: another data set of the same source

Row | IC50, neutralisation of recombinant human FGF23-stimulated proliferation of NIH-3T3 cells (fluorescence) [µg/mL] | Binder
10 | 0.411 | B3
11 | 0.355 | B4
12 | 0.199 | B5
13 | 0.2 | B6
14 | 0.316 | B8
15 | 0.5 | B9

biological target: T1, human FGF23; assay: ELISA, binding to human FGF23 (A450 against log mAb concentration); remark: another data set of the same source

Row | EC50 [µg/mL] | Binder
16 | 0.0295 | B10
17 | 0.0332 | B1
18 | 0.0266 | B11
19 | 0.0262 | B12
20 | 0.0286 | B2
21 | 0.0273 | B13
